Measurements published in paper PMC2248580.

Target: human activated blood coagulation factor X (FXa) (human)
Assay: SPR; […]; 37°C; HBS (10 mM Hepes, 150 mM NaCl, 5 mM CaCl2, 0.005% P20, pH 7.4); Langmuir fit; […]

Question: Which results are given for “Myotoxin II from Bothrops asper venom (from UniProt P24605 17-137) (natural protein)”?
Answer: Kd: 1.8 nM; koff: 0.0178 s⁻¹; kon: 1.04e+07 M⁻¹ s⁻¹
